Assays:
[1] = target: Rhesus monkey Claudine18.2 (Rhesus monkey) (UniProt F6YQY3); experiment: FACS on CHOK1-rh18.2 cells
[2] = target: mouse Claudine18.2 (mouse) (UniProt P56857); experiment: FACS on CHOK1-m18.2 cells

B1: Ab25 (antibody, V domains shown)
VH: EAQLQQSGPELVKPGASVKIFCKASGYTFTDYYINWVKQSHGKSLEWIGDINPNNGGTTYNQKFKGKATLTVDKSSSTASMELRRLTSEDSSVYYCARRDAMDYWGQGTSVTVSS
VL: DIVMTQSQKFMSTTVGDRVSITCTASQNVGPAVAWYQQKPGQSPKLLIYSASRRFTGVPDRFTGSGSGTVFTLTINNVQSEDLADYFCQQYISYPLTFGAGTKLELK
B1 showed an FACS MFI [1] of 12000 and an FACS MFI [2] of 23400.

B2: Ab31 (antibody, V domains shown)
VH: QIQLAQSGPELKKPGETVKISCKASGYSFTNYGMNWVKQAPGKGLKWMGWINTYSGETKYADDFKGRFDFSLETSARTAYLQIKNLKIEDTATYFCARRDAMDYWGQGTSVTVSS
VL: DIVMTQAAPSVPVTPGESVSISCRSSKSLLNSNGNTYLYWFLQRPGQSPQLLIYRMSNLASGVPDRFSGSGSGTAFTLRISRVEAEDVGVYYCMQHLEFPFTFGSGTKLEIK
For B2, the FACS MFI [1] was 8010 and the FACS MFI [2] was 7790.

B3: Ab03 (antibody, V domains shown)
VH: EVQLQQSGPELVKPGASVKIACKASGYTFTDYNMDWVKQSHGKSLEWIGNINSYYGGTIYNQKFKGKATLTVDKSSSTAYMVLRSLTSEDNAVYYCARPHLGNALDYWGQGTSITVSS
VL: DIVVTQSPSSLTVTPGEKVTMSCKSSQSLFNSGNQKNYLSWYQQNPGQPPKLLIYWASTRQSGVPDRFTGSGSGTDFTLTISSVQAEDLAGYYCQNDYIFPLTFGAGTKLELK
For B3, the FACS MFI [1] was 1430 and the FACS MFI [2] was 2970.

B4: Ab30 (antibody, V domains shown)
VH: QVQLKESGPGLVAPSQSLSITCTVSGFSLTKFGVNWVRQPPGKGLEWLGAIWGDGSTNYHSALISRLSINKDNSKSQVFLKLSSLQNVDTATYYCAKSGYGNAMDYWGHGTSVTVSS
VL: DIVMTQSPSSLTVTTGEKVTLNCKSSQSLLNSGNLKNYLTWYQQRPGQPPKLLIYWASTRESGVPYRFTGSGSGTDFTLTISNVQAEDLAIYYCQNDYFFPFTFGSGTKLEIK
B4 showed an FACS MFI [1] of 10500 and an FACS MFI [2] of 9610.

B5: Ab34 (antibody, V domains shown)
VH: EVLLQQSGPELVKPGASVKIPCKASGYTFSDYNMDWVKQSHGKSLEWIGHINPNNDNTIYNQKFKGKATLTVDKSSNTAYMDLRSLSSEDTAVYYCARGAYYGNSMDYWGQGTSVTVSS
VL: DIVMTQSPSSLTVTAGERVTMSCKSSQSLLNGGNQRNYLTWYQQKPGQSPKLLIYWASTWESGVPDRFTGSGSGTDFTLTISSVQAEDLAVYYCQNAYFYPYTFGGGTKLEIK
Binder B5 has an FACS MFI [1] of 6720 and an FACS MFI [2] of 10700.

B6: Ab27 (antibody, V domains shown)
VH: QVQLQQSGAELVRPGSSVKISCKASGYAFSNYWMNWVKQRPGQGLEWIGQIYPGNGDTNYNGKFKGKATLTADKSSTTAYIQLSSLTSEDSAVYFCTRIYYGNSFAYWGQGTLVTVS
VL: DIVMTQSPSSLTVTAGERVTMSCKSSQSLLNSGNQKNYLTWYQQKPGQPPKLLIYWASTRESGVPDRFTGSGSGTDFTLTISRVQAQDLAVYYCQNDYYYPLTFGAGTKLELK
B6 gave an FACS MFI [1] of 9240 and an FACS MFI [2] of 8240.

B7: Ab26 (antibody, V domains shown)
VH: EVMLVESGGGLVKPGGSLKLSCTASGFTFRSYTMSWVRQTPEKRLEWVATITGGGGNTYFLDSVKGRFTFSRDNAKNALYLQMNSLRSEDTALYYCARLGQTQRNAMDYWGQGTSVTVSS
VL: DIVMTQSPSSLSVSAGEKVTMSCKSSQSLLNSGNQMNYLAWYQQKPGQPPKLLIYGASTRESGVPDRFTGSGSGTDFTLTISSVQAEDLAIYYCQNDHTYPLTFGAGTKLEL
In the case of B7, the FACS MFI [1] is reported as 8290 and the FACS MFI [2] is reported as 15700.

B8: Ab29 (antibody, V domains shown)
VH: EVLLQQSGPELVKPGASVKIPCKASGYTLTDHSMDWVKQSHGKSLEWIGNILPNNGGNIYNQKFRGKATLTVDKSSSTAYMELRSLTSEDTAVYNCARGHYGNSFAYWGQGTLVIVS
VL: DIVMTQSPSSLTVRAGEKVTIYCKSSQSLFNSGNQKNYLTWYQQKPGQPPKLLIYWASTRESGVPHRFTGSGSGTDFTLTISSMQADDLATYYCQNGYFFPYTFGGGTKLEIK
B8 gave an FACS MFI [1] of 25700 and an FACS MFI [2] of 21900.

From patent publication US20230095569A1
